These results are taken from the supplement of paper PMC10567573.

A short description of the series: protein stability index of a GFP-peptide fusion (GPS, HEK-293T) (PSI 1-6); higher = more stable. The conditions noted are these: c terminus: a fixed tail appended.

± gives the standard deviation.
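Note: 24-mer peptide tiles fused after GFP, lentivirally expressed, FACS-sorted into six equal bins by GFP/DsRed ratio, decoded by Illumina sequencing, PSI is the read-weighted mean bin number.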

Take RWNKVKMVVSREEVELAYQEAMFN [SEPHS2]: the protein stability index reads like this: (treatment: DMSO) 2.62 ± 0.21; (treatment: MLN4924 1 uM, 8 h) 2.66 ± 0.29.
For RWTSYRFSRVCRLHRGQLSLFCLE [TRIM35], in that order: 2.43 ± 0.54 and 2.23 ± 0.42.
For RYCMQLSQIQGLIGSVEEQLAQLR [KRT16], in that order: 2.28 ± 0.45 and 2.49 ± 0.28.
For RYLLCELVSDDPRCRLSLDDRVLS [POP5], in that order: 2.31 ± 0.25 and 2.36 ± 0.27.
In turn, RYRQAGSSGPGNSQNSFLVQEVME [RPAIN] had a protein stability index (treatment: DMSO) of 4.17 ± 0.23 and a protein stability index (treatment: MLN4924 1 uM, 8 h) of 3.82 ± 0.28.
For SADVNARDKNWQTPLHVAAANKAV [ANKRD44], in that order: 4.18 ± 0.31 and 4.07 ± 0.18.
For SADVVSPSGHSDAQTLAMMLQEQL [PPFIA4], in that order: 4.54 ± 0.32 and 4.97 ± 0.35.
For SAGVGRTGVFITLSIVLERMRYEG [PTPRD], in that order: 2.08 ± 0.095 and 2.34 ± 0.28.
With SAMALVKHSVLLSASRKSAEQLRI [WEE1], the protein stability index runs as follows: (treatment: DMSO) 2.06 ± 0.093; (treatment: MLN4924 1 uM, 8 h) 2.16 ± 0.13.
For SARDCKFTGNFFYNYMMGIEFNPR [DHCR7], in that order: 2.24 ± 0.44 and 2.07 ± 0.59.
For SARMSAGLPGPEAARSGDAAANKL [PLEKHN1], in that order: 5.22 ± 0.085 and 4.92 ± 0.18.
With SARQGELQKVLLMLVDGIDPNFKM [EHMT1], the protein stability index reads like this: (treatment: DMSO) 1.98 ± 0.23; (treatment: MLN4924 1 uM, 8 h) 2.04 ± 0.29.
For SASASTTTTVTAVTAEVDLFGDAF [SNAP91], in that order: 4.28 ± 0.28 and 4.28 ± 0.29.
For SASEMKQLIDNILEESDIDRDGTI [CIB1], in that order: 5.31 ± 0.27 and 5.45 ± 0.2.
For SASLEVVKKDHVALQVPRGKEDST [CBY2], in that order: 5.4 ± 0.16 and 5.35 ± 0.23.
SCAWSLNIQANNCFSTGLSRRVLL [DCAF4]: the protein stability index came out at 3.38 ± 0.47 (treatment: DMSO) and 2.35 ± 0.38 (treatment: MLN4924 1 uM, 8 h).
For SCLKAIVLFTSDACGLSDVAHVES [NR2F2], in that order: 2.43 ± 0.7 and 2.08 ± 0.36.
For SCVIPLRHGGLSLVQTTDFFYPLV [SEPHS2], in that order: 2.42 ± 0.34 and 2.31 ± 0.45.
For SCYQVYCGRYINGHMLQHHGNSGH [HDAC6], the protein stability index is 2.49 ± 0.54 (treatment: DMSO) and 2.21 ± 0.16 (treatment: MLN4924 1 uM, 8 h).
On to SDTPYDSSASYEKENEMMKSHVMD [IKZF1], for which the protein stability index came out at 5.2 ± 0.31 (treatment: DMSO) and 5.13 ± 0.2 (treatment: MLN4924 1 uM, 8 h).
For SEALLYALVHDHQAYAHYLLATFP [ANKRD9], in that order: 2.7 ± 0.49 and 2.61 ± 0.53.
For SEEAPSTSGMGFHAPKIGSNGVEM [SDE2], in that order: 4.92 ± 0.17 and 4.89 ± 0.1.
For SEEQLQEPITGWRKTVCHNGVLGL [LPCAT4], the protein stability index amounted to 3.58 ± 0.45 (treatment: DMSO) and 3.64 ± 0.38 (treatment: MLN4924 1 uM, 8 h).
For SEHLKQRREVAKTVFCLVVIFALC [EDNRA], in that order: 2.58 ± 1.3 and 3.31 ± 0.89.
For SEPFLTPYLLGPDKNLTEREVFNE [SLC19A2], in that order: 4.8 ± 0.053 and 4.83 ± 0.062.
For SETLEQKPHFESSTVKTETISFGS [EPB41L3], in that order: 5.19 ± 0.073 and 4.95 ± 0.34.
As to SFAQATQLGDLHTCLMMDMKACQE [INTS3], the protein stability index by setting is: (treatment: DMSO) 3.21 ± 0.19; (treatment: MLN4924 1 uM, 8 h) 3.3 ± 0.43.
With SFELLVRFFACPSKATFSRNIMNL [KCNA3], the protein stability index (treatment: DMSO) was determined as 3.16 ± 0.46 and the protein stability index (treatment: MLN4924 1 uM, 8 h) came to 2.96 ± 0.25.
For SGDAAAQPAFTGIKGKEGSALTEG [EPB41L3], in that order: 5.55 ± 0.24 and 5.32 ± 0.33.
For SGFWGVARHFNYVGDLMGSLAYCL [DHCR7], in that order: 2.11 ± 0.48 and 2.07 ± 0.11.
Consider SGGVASFICQATGDPRPKIVWNKK [PTPRD], for which the protein stability index reads like this: (treatment: DMSO) 3.46 ± 0.49; (treatment: MLN4924 1 uM, 8 h) 3.58 ± 0.11.
For SGKSEISELRRTMQALEIELQSQL [KRT17], in that order: 3.58 ± 0.35 and 3.68 ± 0.15.
For SGRKNSTSKDLVTLGASSLREERG [C6orf223], in that order: 4.77 ± 0.099 and 4.87 ± 0.26.
For SGTGKKEKEKKNRKGKDKENGSVS [EIF5], in that order: 5.36 ± 0.24 and 5.31 ± 0.21.
With SGTIMKIGIEAKNLASYDVCSILL [MCOLN1], the protein stability index (treatment: DMSO) worked out at 2.87 ± 0.55 and the protein stability index (treatment: MLN4924 1 uM, 8 h) was determined as 2.64 ± 0.37.
In the case of SGTPKRYSLELGKAIKQKLWEALC [C22orf31], the protein stability index runs as follows: (treatment: DMSO) 2.9 ± 0.67; (treatment: MLN4924 1 uM, 8 h) 2.9 ± 0.37.
